Holding throughout (test): cell-based or functional assay
In experiment [1] the target is myc-L1-CAM (myc-tagged rat L1-CAM variant expressed from pMyc-L1-CAM) (rat (variant of rat L1-CAM)) (UniProt Q05695).
The target in experiment [2] is myc-L1-CAM-YH (rat (variant of rat L1-CAM)) (UniProt Q05695).
Experiment [3] concerns the target myc-L1-CAM-YF (rat (variant of rat L1-CAM)) (UniProt Q05695).
Experiment [4] has as its target cell-surface L1-CAM of mouse cerebellar granular neurons (mouse) (UniProt P11627).

The results in this text go back to patent publication US20060142189A1.

myc-L1-CAM (myc-tagged rat L1-CAM variant expressed from pMyc-L1-CAM) (rat (variant of rat L1-CAM)), sequence (Q05695 other isoform, or with tags, fused parts or gaps mutant limits assumed): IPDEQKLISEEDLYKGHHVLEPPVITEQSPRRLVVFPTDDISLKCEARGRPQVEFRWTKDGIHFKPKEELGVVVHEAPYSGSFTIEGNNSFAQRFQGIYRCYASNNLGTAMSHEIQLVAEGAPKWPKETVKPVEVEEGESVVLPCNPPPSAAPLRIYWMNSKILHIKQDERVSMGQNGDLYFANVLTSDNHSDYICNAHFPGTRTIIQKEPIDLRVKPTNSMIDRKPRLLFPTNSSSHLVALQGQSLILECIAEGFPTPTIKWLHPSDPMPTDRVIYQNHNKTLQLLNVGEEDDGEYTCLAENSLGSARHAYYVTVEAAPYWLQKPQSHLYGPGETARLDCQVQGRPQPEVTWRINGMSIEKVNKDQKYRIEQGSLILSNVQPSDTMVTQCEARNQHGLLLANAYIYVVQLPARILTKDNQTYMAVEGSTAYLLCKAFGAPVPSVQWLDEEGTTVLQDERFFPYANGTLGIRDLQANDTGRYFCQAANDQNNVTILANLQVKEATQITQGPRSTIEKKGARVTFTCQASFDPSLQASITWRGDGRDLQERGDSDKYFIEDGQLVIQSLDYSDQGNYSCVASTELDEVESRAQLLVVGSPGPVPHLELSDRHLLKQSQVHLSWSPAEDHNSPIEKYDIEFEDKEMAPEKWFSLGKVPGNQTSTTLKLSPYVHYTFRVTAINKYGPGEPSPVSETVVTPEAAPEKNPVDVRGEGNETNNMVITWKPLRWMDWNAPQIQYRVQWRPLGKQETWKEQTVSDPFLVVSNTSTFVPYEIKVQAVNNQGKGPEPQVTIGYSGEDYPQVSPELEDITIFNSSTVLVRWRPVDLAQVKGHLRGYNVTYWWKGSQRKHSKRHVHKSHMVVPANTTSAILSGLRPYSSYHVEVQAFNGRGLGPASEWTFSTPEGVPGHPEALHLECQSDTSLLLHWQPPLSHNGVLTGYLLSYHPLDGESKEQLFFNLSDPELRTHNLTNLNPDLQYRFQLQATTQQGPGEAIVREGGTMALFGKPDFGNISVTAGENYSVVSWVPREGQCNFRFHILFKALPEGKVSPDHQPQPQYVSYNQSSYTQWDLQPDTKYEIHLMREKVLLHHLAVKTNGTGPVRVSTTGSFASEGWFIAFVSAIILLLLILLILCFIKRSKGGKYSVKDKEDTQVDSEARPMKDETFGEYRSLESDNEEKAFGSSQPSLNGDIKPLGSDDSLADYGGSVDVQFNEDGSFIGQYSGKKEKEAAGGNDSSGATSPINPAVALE
cell-surface L1-CAM of mouse cerebellar granular neurons (mouse), sequence (P11627 20-1260): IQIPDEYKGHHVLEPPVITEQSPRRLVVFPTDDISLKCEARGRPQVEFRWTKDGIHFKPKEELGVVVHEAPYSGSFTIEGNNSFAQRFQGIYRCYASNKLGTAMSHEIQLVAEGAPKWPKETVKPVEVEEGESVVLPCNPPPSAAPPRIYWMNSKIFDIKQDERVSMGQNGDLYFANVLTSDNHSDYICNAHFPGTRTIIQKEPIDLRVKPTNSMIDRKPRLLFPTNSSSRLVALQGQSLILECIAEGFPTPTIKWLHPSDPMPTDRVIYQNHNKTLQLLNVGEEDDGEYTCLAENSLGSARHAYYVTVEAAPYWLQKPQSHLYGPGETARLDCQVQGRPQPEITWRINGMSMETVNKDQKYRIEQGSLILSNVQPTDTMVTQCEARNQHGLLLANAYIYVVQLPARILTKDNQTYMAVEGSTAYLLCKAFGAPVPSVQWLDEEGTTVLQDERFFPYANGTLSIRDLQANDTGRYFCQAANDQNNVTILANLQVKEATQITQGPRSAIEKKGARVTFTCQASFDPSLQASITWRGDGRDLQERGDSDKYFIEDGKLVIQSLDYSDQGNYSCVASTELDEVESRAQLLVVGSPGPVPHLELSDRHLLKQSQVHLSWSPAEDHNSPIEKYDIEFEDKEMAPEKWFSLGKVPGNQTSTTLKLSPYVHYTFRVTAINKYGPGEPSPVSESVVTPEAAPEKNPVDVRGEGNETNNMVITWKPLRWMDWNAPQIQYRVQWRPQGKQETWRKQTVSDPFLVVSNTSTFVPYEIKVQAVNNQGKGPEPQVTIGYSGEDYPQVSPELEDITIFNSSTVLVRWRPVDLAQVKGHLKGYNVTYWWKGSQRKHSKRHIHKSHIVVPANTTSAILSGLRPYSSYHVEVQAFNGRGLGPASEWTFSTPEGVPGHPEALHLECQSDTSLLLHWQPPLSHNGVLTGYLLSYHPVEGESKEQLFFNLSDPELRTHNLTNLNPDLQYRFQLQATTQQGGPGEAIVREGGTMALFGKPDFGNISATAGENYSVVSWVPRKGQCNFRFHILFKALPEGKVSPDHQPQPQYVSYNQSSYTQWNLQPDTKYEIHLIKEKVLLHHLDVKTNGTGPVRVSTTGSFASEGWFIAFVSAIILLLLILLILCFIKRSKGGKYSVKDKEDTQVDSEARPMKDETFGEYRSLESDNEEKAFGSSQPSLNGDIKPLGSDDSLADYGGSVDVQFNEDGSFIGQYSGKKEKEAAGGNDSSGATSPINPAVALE
myc-L1-CAM-YF (rat (variant of rat L1-CAM)), sequence (Q05695 other isoform, or with tags, fused parts or gaps mutant): as the sequence (Q05695 other isoform, or with tags, fused parts or gaps mutant limits assumed) above
myc-L1-CAM-YH (rat (variant of rat L1-CAM)), sequence (Q05695 other isoform, or with tags, fused parts or gaps mutant): as the sequence (Q05695 other isoform, or with tags, fused parts or gaps mutant limits assumed) above

In experiment [1], ankyrin B (endogenous in ND-7 cells) displayed a % of trials with retrograde movement of L1-CAM-bound beads (wild-type, untreated ND-7 cells) of 61.9%; a % of trials with retrograde transport of 9E10-coated beads (wild-type L1-CAM) of 68.9%; a % of trials with retrograde transport of L1-CAM-bound beads after NGF treatment (100 ng/mL, 1 hour) of 100%; a % of trials with stationary behavior of L1-CAM-bound beads (wild-type, untreated ND-7 cells) of 28.6%. The % of trials with stationary behavior of L1-CAM-bound beads after NGF treatment (100 ng/mL, 1 hour) in experiment [1] amounted to 18.2%. In experiment [2], this substance registered a % of trials with retrograde movement of L1-CAM-bound beads of 92.9% and a % of trials with stationary behavior of L1-CAM-bound beads of 0%. For the same substance, in experiment [3], the % of trials with retrograde movement of L1-CAM-bound beads worked out at 37.5% and the % of trials with stationary behavior of L1-CAM-bound beads turned out to be 62.5%.
In experiment [4], “chick Ng-CAM (chick homolog of L1-CAM) (from UniProt Q03696 21-1266) (receptor)” came in with a neurite extension of mouse cerebellar granular neurons on Ng-CAM after 24 h, with AP-YF peptide (30 µg/ml) of 32 µm; a neurite extension of mouse cerebellar granular neurons on Ng-CAM after 24 h, with control AP-Scramble peptide of 21 µm; a neurite extension on Ng-CAM with AP-YF above the level with control peptide of 55%.
